{"source": "patent US20200164083A1", "target": "capture reagent (antibody) of the exenatide ELISA kit (Peninsula Laboratories Inc., # S-1311)", "test": "ELISA (Peninsula Lab exenatide kit)", "data": [{"substance": "exenatide (peptide)", "values": [{"measurement": "EC50", "result": 200, "unit": "pM"}]}]}
